Laboratory results as given in paper PMC12802913.

Experiments:
CHD4 PHD1-2 (human) = test: pull-down (GST), qPCR; conditions: Pull-down: 25 mM HEPES pH 7.4, 150 mM NaCl, 0.5 mM TCEP, 4 C overnight, 50 nM nucleosome; NMR at 0 and 100 mM NaCl (buffer not in material)
[1] = molecular target: GST fusion of CHD4 PHD1-2 (aa 364-506) (human) (UniProt Q14839); test: pull-down; GST-PHD1 or GST-PHD1-2 pre-bound to glutathione magnetic agarose beads; 100 ul of 50 nM nucleosome, 4°C overnight; 25 mM HEPES pH 7.4, 150 mM NaCl, 0.5 mM TCEP; bound nucleosome quantified by qPCR of the 601 DNA, normalised to input
Chain of UniProt Q14839 (Q14839 364-506): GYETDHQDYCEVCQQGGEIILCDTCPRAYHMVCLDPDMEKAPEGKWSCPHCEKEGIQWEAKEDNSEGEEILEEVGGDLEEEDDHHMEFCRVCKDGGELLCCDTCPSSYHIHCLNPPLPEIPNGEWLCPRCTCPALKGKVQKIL

Substance	binding signal (fold vs WT nucleosome) (CHD4 PHD1-2 (human))	fold increase of pull-down over WT nucleosome [1] [fold]
H3.3 G33R nucleosome, 601 DNA	> 2	–
([H3.3G33R]) nucleosome core particle (from UniProt P84243 1-136; P62805 1-103; P0C0S8 1-130; P62807 1-126) (complex)	–	> 2
